Laboratory results taken from paper PMC7110135, “Molecular flexibility of DNA as a key determinant of RAD51 recruitment”.

What was measured:
F86E RAD51 (human) = F86E RAD51 (human) (UniProt Q06609); test: SPR; Biotinylated ssDNA dT-50, dN-50, dA-50 and dsDNA dN-50p held on streptavidin-coated CM5 chips; F86E RAD51 injected at 30 uM; 37 C; same SPR running buffer with ATP and CaCl2. The protomer-protomer KD in solution is a single fit parameter of a simplified ODE polymerisation model, fitted to all four curves by ABC-SMC (n = 3).
RAD51 WT [1] = target: T1, RAD51 WT (Homo sapiens, UniProt Q06609 1-339); test: SPR; ATP, Ca2+; faster association than dN-50; SPR (Biacore T200, streptavidin CM5): 150 mM KCl, 20 mM Hepes pH 7.5, 2 mM DTT, 5 mg/ml BSA, 2.5 mM ATP, 10 mM CaCl2, 10% glycerol, 37 C; settings: protein: recombinant; tags: untagged; chain copies: 10; label: 5' Biotin (C6)
RAD51 WT [2] = target: T1, RAD51 WT; test: SPR; 3 uM RAD51, ATP, Ca2+; slightly faster association, slow dissociation; SPR (Biacore T200, streptavidin CM5): 150 mM KCl, 20 mM Hepes pH 7.5, 2 mM DTT, 5 mg/ml BSA, 2.5 mM ATP, 10 mM CaCl2, 10% glycerol, 37 C; settings: protein: recombinant; tags: untagged; chain copies: 10; label: 3' Biotin-TEG
RAD51 WT [3] = target: T1, RAD51 WT; test: SPR; 150 nM RAD51, 2.5 mM ATP, 10 mM Ca2+; slower association than dN-50, similar lifetime; SPR (Biacore T200, streptavidin CM5): 150 mM KCl, 20 mM Hepes pH 7.5, 2 mM DTT, 5 mg/ml BSA, 2.5 mM ATP, 10 mM CaCl2, 10% glycerol, 37 C; settings: protein: recombinant; tags: untagged; chain copies: 16; label: 5' Biotin (C6) on strand 1; blunt
RAD51 WT [4] = target: T1, RAD51 WT; test: SPR; 150 nM RAD51, 2.5 mM ATP, 10 mM Ca2+; faster association than dN-50p; SPR (Biacore T200, streptavidin CM5): 150 mM KCl, 20 mM Hepes pH 7.5, 2 mM DTT, 5 mg/ml BSA, 2.5 mM ATP, 10 mM CaCl2, 10% glycerol, 37 C; settings: protein: recombinant; tags: untagged; chain copies: 10; label: 5' Biotin (C6)
RAD51 WT [5] = target: T1, RAD51 WT; test: SPR; ATP, Ca2+; SPR (Biacore T200, streptavidin CM5): 150 mM KCl, 20 mM Hepes pH 7.5, 2 mM DTT, 5 mg/ml BSA, 2.5 mM ATP, 10 mM CaCl2, 10% glycerol, 37 C; settings: protein: recombinant, tags: untagged
RAD51 WT [6] = target: T1, RAD51 WT; test: SPR; 3 uM RAD51, ATP, Ca2+; faster association, slower dissociation than dN-8p; SPR (Biacore T200, streptavidin CM5): 150 mM KCl, 20 mM Hepes pH 7.5, 2 mM DTT, 5 mg/ml BSA, 2.5 mM ATP, 10 mM CaCl2, 10% glycerol, 37 C; settings: protein: recombinant; tags: untagged; chain copies: 16; label: 3' Biotin-TEG on strand 2; hairpin, two strands joined by (HEG)2, blunt
[7] = target: T2, human wild-type (WT) RAD51 (human), Q06609; test: SPR; Biotinylated ssDNA (dN-X) and dsDNA (dN-Xp) held on streptavidin-coated CM5 chips; WT RAD51 injected at 150 nM or 3 uM; 37 C; 150 mM KCl, 20 mM Hepes pH 7.5, 2 mM DTT, 5 mg/ml BSA, 2.5 mM ATP, 10 mM CaCl2, 10% glycerol. The protomer-protomer KD in solution is a single fit parameter of an ODE polymerisation model, fitted to all curves by ABC-SMC (n = 3).; settings: remark: other sources report otherwise
T2 chain: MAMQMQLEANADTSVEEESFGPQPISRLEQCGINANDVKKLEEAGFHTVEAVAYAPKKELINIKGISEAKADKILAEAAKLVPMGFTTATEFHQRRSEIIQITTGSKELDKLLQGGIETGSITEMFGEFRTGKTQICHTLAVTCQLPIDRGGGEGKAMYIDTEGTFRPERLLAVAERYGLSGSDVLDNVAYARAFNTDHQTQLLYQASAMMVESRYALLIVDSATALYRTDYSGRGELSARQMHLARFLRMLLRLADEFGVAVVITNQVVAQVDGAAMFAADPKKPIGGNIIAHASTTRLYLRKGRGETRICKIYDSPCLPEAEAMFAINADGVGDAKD

[8] = chain copies: 10, label: 3' Biotin-TEG

Molecule: F86E RAD51 (from UniProt Q06609 1-339) (natural protein)
- Kd (F86E RAD51 (human)): 10.2 µM

Molecule: TTTTTTTTTTTTTTTTTTTTTTTTTTTTTTTTTTTTTTTTTTTTTTTTTT (ssDNA) [ssDNA dT-50]
- binding result (RAD51 WT [1]): binds

Molecule: CGTCGATGAGCAGTGTC (ssDNA) [ssDNA dN-17]
- binding result (RAD51 WT [2]): binds

B1: dsDNA dN-50p (dsDNA)
DNA 1: TCGAGAGGGTAAACCACAATTATCGCCTACCCAAAACTATTTTATATCAA
DNA 2: TTGATATAAAATAGTTTTGGGTAGGCGATAATTGTGGTTTACCCTCTCGA
- binding result (RAD51 WT [3]): binds

Molecule: TTGAGAGAGCAGACCACAATTATCACCTACACGACATCATTTTATATCAA (ssDNA) [ssDNA dN-50]
- binding result (RAD51 WT [4]): binds

Molecule: CTGACTGC (ssDNA) [ssDNA dN-8]
- binding result (RAD51 WT [5]; [8]): no binding

Molecule: CGTCGATAGGC (ssDNA) [ssDNA dN-11]
- binding result (RAD51 WT [5]; [8]): no binding

B2: dsDNA dN-11p (dsDNA)
DNA 1: CGTCGATAGGC
DNA 2: GCCTATCGACG
modifications: two hexaethylene glycol linkers join 3' end of strand 1 to 5' end of strand 2
- binding result (RAD51 WT [6]): binds

B3: dsDNA dN-5p (dsDNA)
DNA 1: CGGAC
DNA 2: GTCCG
modifications: two hexaethylene glycol linkers join 3' end of strand 1 to 5' end of strand 2
- binding result (RAD51 WT [5]; chain copies: 16, label: 3' Biotin-TEG on strand 2, hairpin, two strands joined by (HEG)2, blunt): no binding

B4: human wild-type (WT) RAD51, Q06609 1-339 (natural protein)
chain: T2 chain
- Kd [7]: 0.00114 µM

Molecule: CGGAC (ssDNA) [ssDNA dN-5]
- binding result (RAD51 WT [5]; [8]): no binding
